Patent publication EP4671273A1 (Anaveon AG, dated 2025)
Residue numbers refer to the chain shown, from its start.

Experiments:
[1] = biological target: T1, recombinant IL-21Ra-Fc (AcroBiosystems) (human, UniProt Q9HBE5 20-232); experiment: SPR, not shown
T1 construct: bought; also called rIL-21Rα; rIL-21Ra-Fc; not shown: Fc of the bought reagent, not described

[2] = biological target: recombinant human IL-21 (rhIL-21) (human, UniProt Q9HBE4 30-162, limits assumed); experiment: cell-based or functional assay
recombinant human IL-21 (rhIL-21), sequence (Q9HBE4 30-162 limits assumed): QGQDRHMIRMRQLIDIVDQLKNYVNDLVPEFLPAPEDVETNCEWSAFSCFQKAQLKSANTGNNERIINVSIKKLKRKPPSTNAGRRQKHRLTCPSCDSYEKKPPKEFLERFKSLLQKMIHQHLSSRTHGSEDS

[3] = biological target: T2, human IL-21 receptor (IL-21R) on cells (human, UniProt Q9HBE5 20-538; P31785 23-369); experiment: cell-based or functional assay
T2 sequence (Q9HBE5 20-538, chain 1 of 2): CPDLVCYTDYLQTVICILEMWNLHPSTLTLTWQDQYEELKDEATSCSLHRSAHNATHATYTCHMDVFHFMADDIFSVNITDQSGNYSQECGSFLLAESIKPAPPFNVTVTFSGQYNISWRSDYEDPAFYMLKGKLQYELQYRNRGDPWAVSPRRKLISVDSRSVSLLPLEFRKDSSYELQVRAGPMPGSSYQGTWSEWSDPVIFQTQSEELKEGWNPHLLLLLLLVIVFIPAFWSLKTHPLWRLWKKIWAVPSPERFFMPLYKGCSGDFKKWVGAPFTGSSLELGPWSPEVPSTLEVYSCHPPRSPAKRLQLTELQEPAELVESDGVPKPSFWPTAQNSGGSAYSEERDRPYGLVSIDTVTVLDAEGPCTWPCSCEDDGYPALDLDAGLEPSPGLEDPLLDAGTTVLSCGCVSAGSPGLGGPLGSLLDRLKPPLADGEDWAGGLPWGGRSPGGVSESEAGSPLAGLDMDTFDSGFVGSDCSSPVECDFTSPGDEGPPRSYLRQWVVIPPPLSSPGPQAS
T2 sequence (P31785 23-369, chain 2 of 2): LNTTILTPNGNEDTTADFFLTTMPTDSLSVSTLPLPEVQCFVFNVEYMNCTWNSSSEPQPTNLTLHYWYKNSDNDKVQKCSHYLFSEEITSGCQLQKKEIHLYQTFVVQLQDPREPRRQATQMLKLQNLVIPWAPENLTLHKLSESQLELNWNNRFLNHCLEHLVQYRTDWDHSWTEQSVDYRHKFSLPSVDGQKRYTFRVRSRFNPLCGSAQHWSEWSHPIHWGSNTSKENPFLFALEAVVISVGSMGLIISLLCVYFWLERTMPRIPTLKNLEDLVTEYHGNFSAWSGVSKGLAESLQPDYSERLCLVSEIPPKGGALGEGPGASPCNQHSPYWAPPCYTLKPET

[4] = biological target: T2, human IL-21 receptor (IL-21R) on cells; experiment: cell-based or functional assay; remark: listed apart in the source

T1 sequence (Q9HBE5 20-232): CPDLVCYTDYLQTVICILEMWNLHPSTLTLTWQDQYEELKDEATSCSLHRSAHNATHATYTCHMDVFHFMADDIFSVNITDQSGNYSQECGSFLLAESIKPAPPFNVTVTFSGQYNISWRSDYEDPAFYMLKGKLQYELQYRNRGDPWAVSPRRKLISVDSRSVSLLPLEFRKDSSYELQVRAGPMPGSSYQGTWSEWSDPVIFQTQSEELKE

B1: FYP014 (antibody, human IgG1, V domains shown)
VH: EVQLVESGGGLVKPGGSLRLSCAASGFIFSSYSMNWVRQAPGKGLEWVSSITSGSYYIHYADSVKGRFTISRDNAKNSLYLQMNSLRAEDTAVYYCVRERGWGYYGMDVWGQGTTVTVSS
VL: AIQLTQSPSSLSASVGDRVTITCRASQDIDSALAWYQQKPGKAPKILIHDASSLESGVPSRFSGSGSGTDFTLTISSLQPEDFATYYCQQFNSYPYTFGQGTKLEIK
notes: human IgG1; also called EP3103813A1 clone 366.328.10.63
binding result [1]: binds
% pSTAT3+ Jurkat cells, 0.1 nM rhIL-21 + 0 nM antibody [2]: 82.7%
% pSTAT3+ Jurkat cells, 0.1 nM rhIL-21 + 0.1012 nM antibody [2]: 59.4%
% pSTAT3+ Jurkat cells, 0.1 nM rhIL-21 + 0.1602 nM antibody [2]: 6.07%
% pSTAT3+ Jurkat cells, 0.1 nM rhIL-21 + 0.2536 nM antibody [2]: 4.93%
% pSTAT3+ Jurkat cells, 0.1 nM rhIL-21 + 0.4015 nM antibody [2]: 4.39%
% pSTAT3+ Jurkat cells, 0.1 nM rhIL-21 + 0.6355 nM antibody [2]: 5.32%
% pSTAT3+ Jurkat cells, 0.1 nM rhIL-21 + 1.006 nM antibody [2]: 5.9%
% pSTAT3+ Jurkat cells, 0.1 nM rhIL-21 + 1.5925 nM antibody [2]: 4.78%
% pSTAT3+ Jurkat cells, 0.1 nM rhIL-21 + 2.5209 nM antibody [2]: 5.16%
% pSTAT3+ Jurkat cells, 0.1 nM rhIL-21 + 3.9906 nM antibody [2]: 4.64%
% pSTAT3+ Jurkat cells, 0.1 nM rhIL-21 + 6.3171 nM antibody [2]: 3.99%
% pSTAT3+ Jurkat cells, 0.1 nM rhIL-21 + 10 nM antibody [2]: 3.83%

B2: TVU155 (bispecific antibody, human IgG1, kappa, lambda, L234A L235A)
heavy 1: EVQLLESGGGLVQPGGSLRLSCAASGFTFSINAMTWVRQAPGKGLEWVSTISGSGFSTYYADSLKGRFTISRDNSKNTLYLQMNSLRAEDTAVYYCAKEVYGDYWGQGTLVTVSSASTKGPSVFPLAPSSKSTSGGTAALGCLVKDYFPEPVTVSWNSGALTSGVHTFPAVLQSSGLYSLSSVVTVPSSSLGTQTYICNVNHKPSNTKVDKRVEPKSCDKTHTCPPCPAPEAAGGPSVFLFPPKPKDTLMISRTPEVTCVVVDVSHEDPEVKFNWYVDGVEVHNAKTKPREEQYNSTYRVVSVLTVLHQDWLNGKEYKCKVSNKALAAPIEKTISKAKGQPREPQVCTLPPSREEMTKNQVSLSCAVKGFYPSDIAVEWESNGQPENNYKTTPPVLDSDGSFFLVSKLTVDKSRWQQGNVFSCSVMHEALHNHYTQKSLSLSPGK
light 1: not shown
heavy 2: QVQLQESGPGLVKPSETLSLTCTVSGGSISSDYWGWIRQPPGKGLEWIGYISYRGSTNYNPSLKSRVTISVDTSRNQFSLKLSSVTAADTAVYYCARSAGVTDFDAWGQGTLVTVSSASTKGPSVFPLAPSSKSTSGGTAALGCLVKDYFPEPVTVSWNSGALTSGVHTFPAVLQSSGLYSLSSVVTVPSSSLGTQTYICNVNHKPSNTKVDKRVEPKSCDKTHTCPPCPAPEAAGGPSVFLFPPKPKDTLMISRTPEVTCVVVDVSHEDPEVKFNWYVDGVEVHNAKTKPREEQYNSTYRVVSVLTVLHQDWLNGKEYKCKVSNKALAAPIEKTISKAKGQPREPQVYTLPPCREEMTKNQVSLWCLVKGFYPSDIAVEWESNGQPENNYKTTPPVLDSDGSFFLYSKLTVDKSRWQQGNVFSCSVMHEALHNHYTQKSLSLSPGK
light 2: not shown
EC50B, pSTAT3+ Jurkat PD-1 cells, PD-1 blocked [3]: 0.951 nM
EC50NB, pSTAT3+ Jurkat PD-1 cells [3]: 4 pM
Δ [4]: 2.96

B3: WBL338 (bispecific antibody)
heavy 1: B2 heavy 1
light 1: not shown
heavy 2: B2 heavy 2 with A106W
light 2: not shown
EC50B, pSTAT3+ Jurkat PD-1 cells, PD-1 blocked [3]: 1.52 nM
EC50NB, pSTAT3+ Jurkat PD-1 cells [3]: 3 pM
Δ [4]: 8.18
